Target: T1, α-CT coiled-coil domain fused with HIS tag (α-CT-His), fluorescently labeled (Arabidopsis thaliana, fluorescently labeled using His-tag labeling kit (NanoTemper, MO-L008))
T1 construct: α-carboxyltransferase (α-CT), Arabidopsis thaliana, At2g38040, C-terminus / coiled-coil domain; also called C-terminus of α-CT; labeled α-CT coiled-coil domain; source: expressed in Luria Broth with IPTG (pET30a), purified on nickel agarose resin
Test: MST; 100 nM α-CT-His labeled with His-tag labeling kit, mixed with serial dilutions of CTI in PBS buffer; 100% LED power, high MST power, NanoTemper Monolith NT.115
Details: both partners purified

fold higher affinity than CTI2 (from KD values): 100 fold
fold higher affinity than CTI3 (from KD values): 10 fold
B1: coiled-coil domain of CTI1 fused with HIS tag (domain or fragment)
chain: PQISKAIAGADRKDLMRKLPKFIYDEEKALEKTRKVLAEKIAQLNSAIDDVSSQLKSEDTPNGAALSTDEIEATA

— publication PMC7712654, “Docking of acetyl-CoA carboxylase to the plastid envelope membrane attenuates fatty acid production in plants” (Nature Communications, 2020)
